This note sets out measurements from US20040013664A1.

This assay deals with Fas receptor on human cells (Jurkat, HT-29) (human) (UniProt P25445). Nature of the assay: cell-based or functional assay.
Fas receptor on human cells (Jurkat, HT-29) (human), sequence (P25445 26-335): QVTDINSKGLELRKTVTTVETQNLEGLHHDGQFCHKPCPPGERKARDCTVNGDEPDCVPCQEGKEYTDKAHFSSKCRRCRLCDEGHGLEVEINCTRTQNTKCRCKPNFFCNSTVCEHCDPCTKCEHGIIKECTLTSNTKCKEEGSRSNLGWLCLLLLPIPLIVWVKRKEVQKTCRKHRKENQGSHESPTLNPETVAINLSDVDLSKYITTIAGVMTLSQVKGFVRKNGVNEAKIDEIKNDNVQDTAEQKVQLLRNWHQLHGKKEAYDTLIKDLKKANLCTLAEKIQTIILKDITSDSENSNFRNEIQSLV

As for “sFas ligand (Alexis Corporation, FLAG epitope tag at its N-terminus) (from UniProt P48023 103-281)”, the % Cells undergoing apoptosis (Jurkat, annexin/propidium iodide FACS); FasL (20 ng) was 8.87% and the decrease in Jurkat cell viability (ALOMAR blue) turned out to be 50%.
